The record followed here is paper PMC5426085 (Frontiers in Microbiology, 2017).

Data set [1] has as its target FtsZ (SaFtsZ) (Staphylococcus aureus, UniProt P0A031). In words: GTPase assay (phosphate release), […]° light scattering polymerization, TEM, far-UV CD with recombinant purified FtsZ. It is filed as biochemical. To be noted: read-out: % inhibition of GTPase at 8 μg/mL (~15 μM).
Data set [2] concerns the molecule itself. In words: 90° light scattering of polymerization; FtsZ 6 μM in 20 mM Tris pH 7.4, 0.01% Triton X-100; started with 20 mM KCl, 5 mM MgCl2, 1 mM GTP; 37°C; 600 nm; without and with compound 1 (1 to 6 μg/mL); self-assembly into polymers.

As to `CN1/C(=C/c2cc(/C=C/c3ccc(O)cc3)[n+](C)c3ccccc23)Sc2ccccc21` [compound 1, 2-((E)-4-hydroxystyryl)-1-methyl-4-((Z)-(3-methylbenzo[d]thiazol-2(3H)-ylidene)methyl)quinolin-1-ium iodide], the inhibition at 8 µg/mL in data set [1] is 58%.

B1: E. coli FtsZ (natural protein, UniProt P0A9A6 1-383, looked up)
chain: MFEPMELTNDAVIKVIGVGGGGGNAVEHMVRERIEGVEFFAVNTDAQALRKTAVGQTIQIGSGITKGLGAGANPEVGRNAADEDRDALRAALEGADMVFIAAGMGGGTGTGAAPVVAEVAKDLGILTVAVVTKPFNFEGKKRMAFAEQGITELSKHVDSLITIPNDKLLKVLGRGISLLDAFGAANDVLKGAVQGIAELITRPGLMNVDFADVRTVMSEMGYAMMGSGVASGEDRAEEAAEMAISSPLLEDIDLSGARGVLVNITAGFDLRLDEFETVGNTIRAFASDNATVVIGTSLDPDMNDELRVTVVATGIGMDKRPEITLVTNKQVQQPVMDRYQQHGMAPLTQEQKPVAKVVNDNAPQTAKEPDYLDIPAFLRKQAD
notes: cell division protein FtsZ, Escherichia coli; also called EcFtsZ; source: recombinant; cloned, overexpressed, and purified as described previously (Sun et al., 2014; Li et al., 2015)
For the molecule B1, the binding result in data set [2] is given as “binds”.

B2: Staphylococcus aureus FtsZ (natural protein, UniProt P0A031 1-390, looked up)
chain: MLEFEQGFNHLATLKVIGVGGGGNNAVNRMIDHGMNNVEFIAINTDGQALNLSKAESKIQIGEKLTRGLGAGANPEIGKKAAEESREQIEDAIQGADMVFVTSGMGGGTGTGAAPVVAKIAKEMGALTVGVVTRPFSFEGRKRQTQAAAGVEAMKAAVDTLIVIPNDRLLDIVDKSTPMMEAFKEADNVLRQGVQGISDLIAVSGEVNLDFADVKTIMSNQGSALMGIGVSSGENRAVEAAKKAISSPLLETSIVGAQGVLMNITGGESLSLFEAQEAADIVQDAADEDVNMIFGTVINPELQDEIVVTVIATGFDDKPTSHGRKSGSTGFGTSVNTSSNATSKDESFTSNSSNAQATDSVSERTHTTKEDDIPSFIRNREERRSRRTRR
notes: cell division protein FtsZ, Staphylococcus aureus; also called SaFtsZ; filamenting temperature-sensitive mutant Z; source: recombinant; cloned, overexpressed, and purified as described previously (Sun et al., 2014; Li et al., 2015)
As for B2, the binding result in data set [2] is reported as “binds”.
